One molecule from patent US20180280423A1 (NATIONAL YANG MING UNIVERSITY, published 2018) can be followed below.

The target in this assay is T1, epidermal growth factor receptor (EGFR) (human, UniProt P00533 25-1210).
T1 construct: whole, on cells; Endogenous EGFR in human HNSCC cells, or wild-type pHA-EGFR where transfected; also called ErbB1; total EGFR
The assay can be described thus: interaction of transfected LTβ with EGFR (method not named; immunoprecipitation in Methods).

Method: For immunoprecipitation, the lysates were mixed with an equal amount of Co-IP buffer. The primary antibody or IgG was added to the lysates, and the reactions were incubated and then blocked with protein A beads overnight. The beads were collected and washed gently prior to immunoblotting. ImageJ software was used for densitometric measurements of the western blots.

B1: Ectopic LTβ (ligand)
chain: MGALGLEGRGGRLQGRGSLLLAVAGATSLVTLLLAVPITVLAVLALVPQDQGGLVTETADPGAQAQQGLGFQKLPEEEPETDLSPGLPAAHLIGAPLKGQGLGWETTKEQAFLTSGTQFSDAEGLALPQDGLYYLYCLVGYRGRAPPGGGDPQGRSVTLRSSLYRAGGAYGPGTPELLLEGAETVTPVLDPARRQGYGPLWYTSVGFGGLVQLRRGERVYVNISHPDMVDFARGKTFFGAVMVG
notes: also called pFLAG-LTB product; transfected LTβ; not shown: FLAG tag from the pFLAG-CMV2 vector
With B1, the binding result is on record as “binds”.
